A short description of this series: label from the status in PepcDB records.
As to “MPAKTALIYSNDFSRFSYGDDHPFKIQRIILARELMGMLGLTELPGACIHDCPRADEASLLTFHSPDYLQRLREFSDSDEPRADFRYGLGDLDNPVFKGFYDWAILGVGGTMEAARLVTEEGYDIAFTMAGGWHHAHRSKASGFSYLNDAVIAINTLVAKGLRVAYLDIDAHHGDGVQEAFYDTDQVLTVSIHESGIYFFPGTGFEDEIGRGQGRGYSVNVPLVAHTDDALFMKAFDEVAYPLIAAYNPDVLVTQLGVDTFRTDPLTRLEITTHSYTYILRKLKALKIPWVAVGGGGYNMINVARGWTLAWGIMNGVELPPKLPAQFVDMIAPMGHPNRMLLDAMHWAEEDDRNRALDAVERSIAAIRETVFPVIIGNYAAAAGE”, the protein production result is on record as “failed”. On to “MPALDLIRPSVTAMRVIASVNAEFARELKLPPHIRSLGLISADSDDVTYIAADEATKQAMVEVVYGRSLYAGAAHGPSPTAGEVLIMLGGPNPAEVRAGLDAMVANIENGAAFQWANDAENTAFLAHVVSRTGSYLSSTAGITLGDPMAYLVAPPLEATYGIDAALKSADVQLVTYVPPPSETNYSAAFLTGSQAACKAACNAFTDAVLEIARNPIQRA”, for which the protein production result is “not failed”. Turning to “MPAPAATYERVVYKNPSEYHYMKVCLEFQDCGVGLNAAQFKQLLISAVKDLFGEVDAALPLDILTYEEKTLSAILRICSSGLVKLWSSLTLLGSYKGKKCAFRVIQVSPFLLALSGNSRELVLD”, the protein production entry is reported as “not failed”. Under “MPARPAYSRLQIALHWLVAILIAAAWLTHEGMGRALETRIETGASGFEGNTPHVWLGIAVFVAVLIRIVVRRVQGAPGPLPGATPLMEKAATWGHRLLYLLMVLTPALGALAWNAHSEAVGELHETVGSALMLVALGHALVALWHQYVKKDGSLTRITRPQG” stands “failed”. As for “MPCTPDTTSHPCFTEKAAQSCGRVHLPVAPKCNVLCGYCNRKYDCVNESRPGVTSGVLTPAQAADYLDRVLEREPAIRVAGIAGPGDPMANAAATLETLRLIRQRHPDMLFCLSSNGLGMPPHLDALAANGVTHATLTINAVDPDISARLYTWVRDGKVVWRGRPAAELMLERQLTALTGLVQRGIVVKVNTILVPGINDGHVEQVAEKVAALGATLMNIIPLHPTHDTPLAQVAEPSPEAVGEARRLAGAHIRQMTHCRRCRADAVGLLHHDRSRELAPLLRECAQKDDGAGARPFVAVATREGMLVNQHLGEATRLQIWGLGPARSGKGGTTTGGEAASGRNDAKGTGSGDVPGSTGGNSWGKAGATPWDSEEDKNDKRTDSTGSTGGDSGAVCGTTHGTTCGKDATRAGTDATDMPVPVLLEERATPRPGCGPERWHALADMLKDCRAVLTAACGESPRAILREHGITVTECAGIVEDVVGAVLAGLDVNAFRARKGGVSKGCCRGGGDGC”, the entry is “failed”; as for “MPDGWRKMGVLVFYDLPVVSPEQRLAAVRFHKFLLADGFERMHYSIYARYCGSMERAATYERRVEQALPAVGHVNLLKLTDRQMVGMRKWIRGNYRAPENAEFVPPAQYQLFLEHHHHHH”, “failed”. As for “MPDIAVLVKASLNPDMARIGPDDSVDLNSIPLKISDIDRNAVEEAVKLKEKLGGKLYAVSVLTWGPVKLRNKDLRLAVQEALAKGVDEAIVVADDELTPGDQTTTAKAIKAALEKHGVKPELILAGEATIDEVTSQVPGRLASLLGYKYLSFVRKLDVDNGRIIAERDLEDYIEVVEASLPAVVSVTQEINEPRPPTLLQIRRAARKPVKEYSASELENVGKPVRRIVQIRGVQVKRKQQIIEGDNLEEIAEKLIEALAREGVLKL”, the entry is “failed”; as for “MPDINESMLNQFRPVIRRFIDPIADRIALPADYITLTGFLVACAASAGYASGSLITGAALLAASGFIDVLDGAVARRRFRPTAFGGFLDSTLDRLSDGIIIIGITAGGFTGLLTGLLALHSGLMVSYVRARAESLGIECAVGIAERAERIIIILAGSLAGYLIHPWFMDAAIIVLAALGYFTMIQRMIYVWQRLK”, “failed”. “MPDKKREVSLSHRLQEVASFVPKGARLLDVGSDHAYLPIYLLEQGLIDFAVAGEIIKGPYESAVANVSESELSGQIAVRLADGLAALNDNDDIDLITICGMGGRLIADILAAGSDKLNSVKQLILQPNNCEDDLRSWLVANDFMIKAEKMVKDRHKYYEILVVEKGKITLSDKDLRFGPFLRQERSSIFKERWRKELAKLELALTKVPAKKKADNMFLSTKIEQIKEVLYES”: the protein production result is recorded as “not failed”.

Take “MPDSPLPLYHKVYLLLKQRLQSGGFALNAAMPGENALAAEYGVSRLTIRRSLEALESEGLIERRQGRGTFAAEGAILSAPQHSADIDTLMAHLARMGMHTQVNLLELDTVPATPQVAAQLELPAGAPVQRAVRVRSHQGLPFSYLVTYVPGEIGQRIRREDLGAKPLLAIFRDLGVRVARAQQSISAVLAEPGTAGALDVPVGSALLSLQRLVRDDAGRPVEWLHALYRPDRYEYRLDMQAHDTPGQPTWLPAGAPRRA”: the protein production result was “failed”. Under “MPDTPAEGYGNTLSSLALDHNWRTIYPLGAYQLSGLAWVDPQALWLRQLPRLPFCQATLGASFLALDRVRGFILLINGENDHSEILNPYDLEPFLDANGLCLYRETLWFCRDTWLYRCHLPDWHVEKMLECRYPIYGVAVDETGIYVACQKSGYIHCFDETGREQYRLSAPGIGCENLALKDGYLWVSDRLEQSIYCLDRHSGHVEWVALTPFAQPTAFTFDATGQLWVAYGGEEAYLRDNPNNREAPLEIDYRDICLIHPLLYHTHREQHYTLSNGYLIEMAYVEELSPLDALHLDNLEWRIALPANSPRQKLLRVEPVGTPFRLETVADQQVAVFDFPELRPYEARLFGWRAWLEVRGMKYHLSFDNIDETQPLPSEFAAQYLVDNDELAMDQPIVQEAAREAVGTETNILRKMLKIRNYVYDRLSYAMRPTIETPDVVLKRGTGSCGEYVGVLLALARLNGIACRTVGRYKCPPYPQKRGIPLQPTYNHVWLEFYVPGVGWVPMESNPDDVVERGPYPTRFFMALPWYHVEVGKGIRFETTNYRDRGVRLGDLALNHVRFTIHSELPPLLLEHHHHHH” stands “failed”; under “MPEHTPAPTPHRAVYGFAFYMLFTVLFLVYVTWALLPVEFGLHSYLPDKYFAVFVPFLVLVFAWFFAFLIYPAINLSMTVDVDSIASVVDPKLALPKGTEFTSWSQLQKGKVSQDSASKKASPVNCNLCRTFHQPVTRAPIPPLRFLDLQEVNTAYYN”, “failed”. Regarding “MPEITLNCQKLPCPQPVLRCKALLDTEAPARCTVTVDNAPASENVARFLTSRGYDTSVHADPEGLWNIIAVRKDSAVAPSCDCEVMDARGIAAIAGTAEMPQKVTVFITSETLGSGDDVLGGKLMANFLATLPELGDELWRIVCVNGGVRLATREHPAVTHLNKLEAMGVDILVCGTCLDHFGLLSEKAVGQTTNMLDVVTSLQLATKVIRPLEHHHHHH”, the protein production result is “not failed”.

For the sequence “MPEKKPVTAENSVGIDLGIEKFAILSDGIAVENPRFIKRVEKRIKKLQKQISRKKKGSKNYEKQKIRIQKKYRKLRNLRDDFHDKVSTAIAKRYDTIFIEDLNVRGMQRNHHLARSITDVSFYSFKEKLKWKADRYGKNLIEIGRFDPSSKLCSRCGNIKKDLKLSDRVYSCDACGLTIDRDYNASLDIRKIGLVKVGLVPPEFTPVEIATSGLDGIYPYRQMSVGESGRSEASAEELEHHHHHH”, the protein production result is listed as “failed”.

As for “MPESRTVALVTLGCARNEVDSEELAGRLEADGWKLVDDAEEADVAVVNTCGFVEAAKKDSVDALLEANDLKGHGRTQAVVAVGCMAERYGKELADALPEADGVLGFDDYADISDRLQTILNGGIHAAHTPRDRRKLLPISPAERQEAGAAVALPGHGPTDLPEGVAPASGPRAPLRRRLDGSPVASVKLASGCDRRCSFCAIPSFRGSFISRRPSDVLNETRWLAEQGVKEIMLVSENNTSYGKDLGDIRLLESLLPNLAEVDGIERVRVSYLQPAEMRPGLIDVLTSTEKVAPYFDLSFQHSAPNVLRAMRRFGDTDRFLELLDTIRSKAPEAGVRSNFIVGFPGESEADLAELERFLNHARLDAIGVFGYSDEEGTEAATYGDKLDEDVVAERLARVSRLAEELVSQRADERVGATVRVLVESVDPAGEGDGVRGRAEHQAPETDGQVLLTSGAGLSVGRMVDAKVVGTEGVDLVAEPLLGSPEWSEEAGRLEHHHHHH”, the protein production result is reported as “failed”. As to “MPEYSSVTGLEGVKFAPLKKENGFYVATKIIDYPYAINAKVNTETSTEKQYADNKLVDMAVTTGSTKLELEMRDLPMEILEELFGIEETDGIYMFKKNVIAPWVAMSFYGPKANGKNRHVGLVKGRFSLPDDEWKTKEEKTDFQTVKLSAEFMEREQDNAYKVLADEDAPNFNLDKFYEKVFGNAYKNPLEHHHHHH”, the protein production result is “not failed”. As for “MPFGYGLSYGTDFSQEIVSTEQNEDSVTLKVHAANNGTKAGKDVVQVYYNPPYTDFDAKNSIEKSTVNLIAFEKTDDIQPGAAQDITVTVTKEDMASYSYAHENSDGTKGAYLLEQGDYALSINKTAHEEYQSVTVNVPQTIWYDNDNPRQSDKDGQAILDDQGDPTNEPANGDTFKAASNLFQDMTDHMSKTSQLTRANGALSNTATFPTKEEMADISAAFNAKTDDEGRLILQQMDLDTDTTLGNTAGSKVYTTEKPTSNADNGLTLSDLRGVDFNDTKWDQLLDQLEWPSRMPE”, the entry is “failed”. For “MPGAEQRWPARAALLLVLIAAAGLARGQETPSGPPPRVAMVVGNSAYQNVPALPNPAGDAELVAEKLWESGFEVIETVDADRETMLADLATFRSRLREGSEALFFYAGHGVQIGGRNYLLPVSVAPSSVEDLKAQAIDAQLFLDVMAQSGARLTLVLLDACRNNPFLDIPSDGAEAIATRALSIGASRAAVERGLRDLAAASRGGLAEMSAGRGEALISFATAPGQVAFDGRGRHSPYTSALAGSIDEPGLELVDLFRRVRGAVREATGGQQIAWTASTLESRFYFKPPADDLRSATTGMSTGSDTLGALPPRRVVDRTFWRAIRDTDRLDAFTAYVRTMPDGAFVAEAKEKIRSLGGDPEAIPVSDLSLPERPRGFVLADPAAQADLAATLDRAPASVPIGTGAARIGAAAGRAGWVHVAAAPRLGAVSAGGTRLEAGSVRWMEADQPLDYLPGIGSNGGLDSLRAEALREGGTTEPLEAAVETYVDACDMLAGNPYDSQRVTAGTRQFILDRNHDAAIAVCEIAVARHPEVVRFWAELARSYRAAGRYEEALHWQQKAVDAGYASAMVYLGQMFLDGQAVPQDFDRARELFEAADARGETAALTALAWIHRAGVGVPEDPARALDFYRQGAARGNDWAMTNIGEFYQKGLSVARDPAEAVRWYTAAAKSGELTAQTRLARMYQTGDGIAVDEAQARFWFETAAGRGVPNALTRLGLMYEQGQGVDRDLEAAARLYGRAAAEGDAEAWLRLGRLEASDAPLFDRPERALPLLEKALAAQVPGAARELGRLYETGRGVTKDLARARALYVQEAGANPWAARDAGRAFASDEGAPADPAQAARWYRAAAEGGVPWAALDLGRLYETGRGVPQDRTEALVLYAAAARPGGDARAADAARRAAAGYSAEETIRAAQLLLGRLGAEVGAPDGRIGPATRDALARVFAAQGRAAPGTRIDFDLLAELSAMDEERLP”, the protein production result is “failed”.

Turning to “MPGELLGAHYGHCFGCGEEQSHGLHLAARAGQGVSITAEFTVQPAHQGAPGLAHGGVLATALDETLGSLNWLLRTIAVTGRLETDFVRPVPVGTVLYLEAEVTAVAGRKIYSTATGRIGGPEGPVAVRADALFVEVKVDHFTDNGRQEEIRAAMNDPDQLRRARAFEVNPLEHHHHHH”, the protein production entry is reported as “failed”. As for “MPGFTAPTRRQVLSLYKEFIKNANQFNNYNFREYFLSKTRTTFRKNMNQQDPKVLMNLFKEAKNDLGVLKRQSVISQMYTFDRLVVEPLQGRKH”, the protein production entry was “failed”. Under “MPGGRRRGFDDQVALQTAMELFWRQGYEGTSITDLTKALGINPPSLYAAFGSKRDLFEKTLDRYMCERTLQLEEAMVRPTAHEAVLDFLTGRVEVFTAPGQPFGCMTVQAGLASGEPHHEIVDLLTAAREQMRQTVLDRFEKALADGDLPAGTDCTALARYVMAAVYGLSVEAASGAPREELTAAAILAAQVVPRAQM” stands “not failed”.

The values are drawn from a protein production outcome set (Wang et al. 2014).
